Reference: article PMC4014737

Target: biotinylated yeast L3Δ21 peptide (S. cerevisiae) (UniProt P14126)
Assay: SPR; Biacore 3000; biotinylated L3Δ21 peptide on an SA sensor chip (Fc2), PAP as analyte at 103, 94, 75 and 45 pM; 25 °C; HBS-EP (0.1 M HEPES pH 7.4, 0.15 M NaCl, 3 mM EDTA, 0.005% polysorbate 20); 1:1 Langmuir fit

Chain of UniProt P14126 (P14126 1-21, stated change not applied): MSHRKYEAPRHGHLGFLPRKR

His-tagged pokeweed antiviral protein (PAP), recombinant (enzyme)
Kd: 24.8 nM
koff: 4.6e-05 s⁻¹
kon: 1860 M⁻¹ s⁻¹
